Data from US20180037631A1 (Bristol-Myers Squibb, published 2018).
Positions count from the first letter of the chain named. Names may count otherwise. “And” between values parts separate entries of the source, which are not always exact repeats. Equal entries are not always repeated.

B1: I1-GS10-E5 pegylated, His-tagged (designed binder)
chain: MGVSDVPRDLEVVAATPTSLLISWSARLKVARYYRITYGETGGNSPVQEFTVPKNVYTATISGLKPGVDYTITVYAVTRFRDYQPISINYRTEIDKGSGSGSGSGSGSGSGSGSGSVSDVPRDLEVVAATPTSLLISWWAPVDRYQYYRITYGETGGNSPVQEFTVPRDVYTATISGLKPGVDYTITVYAVTDYKPHADGPHTYHESPISINYRTEIDKPCQHHHHHH
modifications: 40 kDa branched PEG on the Cys of the C-terminal Cys tail
notes: also called I1-GS10-E5 (with Peg)
B2: I1-GS10-E85 pegylated, His-tagged (designed binder)
chain: MGVSDVPRDLEVVAATPTSLLISWSARLKVARYYRITYGETGGNSPVQEFTVPKNVYTATISGLKPGVDYTITVYAVTRFRDYQPISINYRTEIDKGSGSGSGSGSGSGSGSGSGSVSDVPRDLEVVAATPTSLLISWTQGSTHYQYYRITYGETGGNSPVQEFTVPGMVYTATISGLKPGVDYTITVYAVTDYFDRSTHEYKYRTTPISINYRTEIDKPCQHHHHHH
modifications: 40 kDa branched PEG on the Cys of the C-terminal Cys tail
B3: I1-GS10-E105 pegylated, His-tagged (designed binder)
chain: B1 chain with W139D, V142T, D143S, R168G, D169G, V170L, Y171S
modifications: 40 kDa branched PEG on the Cys of the C-terminal Cys tail
B4: I1-GSGCGS8-E5 pegylated (designed binder)
chain: MGVSDVPRDLEVVAATPTSLLISWSARLKVARYYRITYGETGGNSPVQEFTVPKNVYTATISGLKPGVDYTITVYAVTRFRDYQPISINYRTEIEKGSGCGSGSGSGSGSGSGSGSVSDVPRDLEVVAATPTSLLISWWAPVDRYQYYRITYGETGGNSPVQEFTVPRDVYTATISGLKPGVDYTITVYAVTDYKPHADGPHTYHESPISINYRTEHHHHHH
modifications: PEG on the Cys of the GSGCGS8 linker
notes: alternative clone of I1-GS10-E5 pegylated; tail of first monomer EIEK (D to E); also called I1-GSGCGS8-E5(3)
B5: I1-GS10-E5(S62C) pegylated (designed binder)
chain: B4 chain with C100S, S176C
modifications: PEG on Cys at position 62 of E5 (position of SEQ ID NO: 1)
notes: also called I1-GS10-E5(S62C)(6)
B6: I1-GS10-E5 pegylated without the 6HIS tag (designed binder)
chain: B4 chain with E95D, C100S, H217I, H218D, H219K, H220P, H221C, H222Q
modifications: PEG on the Cys of the C-terminal Cys tail
notes: Whether the D-to-E change in the tail of the first monomer applies to this construct is not clear; also called I1-GS10-E5 pegylated(1)
B7: I1(S62C)-GS10-E5 pegylated (designed binder)
chain: B4 chain with S62C, C100S
modifications: PEG on Cys at position 62 of I1 (position of SEQ ID NO: 1)
notes: also called I1(S62C)-GS10-E5(5)
B8: I1-GS10-E5(S91C) pegylated (designed binder)
chain: B4 chain with C100S, S210C
modifications: PEG on Cys at position 91 of E5 (position of SEQ ID NO: 1)
notes: also called I1-GS10-E5(S91C)(8)
B9: I1(S91C)-GS10-E5 pegylated (designed binder)
chain: B4 chain with S87C, C100S
modifications: PEG on Cys at position 91 of I1 (position of SEQ ID NO: 1)
notes: also called I1(S91C)-GS10-E5(7)
B10: I1-GS10-E5-GSGC pegylated (designed binder)
chain: MGVSDVPRDLEVVAATPTSLLISWSARLKVARYYRITYGETGGNSPVQEFTVPKNVYTATISGLKPGVDYTITVYAVTRFRDYQPISINYRTEIEKGSGSGSGSGSGSGSGSGSGSVSDVPRDLEVVAATPTSLLISWWAPVDRYQYYRITYGETGGNSPVQEFTVPRDVYTATISGLKPGVDYTITVYAVTDYKPHADGPHTYHESPISINYRTEGSGCHHHHHH
modifications: PEG on the Cys of the GSGC tail of E5
notes: alternative clone of I1-GS10-E5 pegylated; also called I1-GS10-E5-GSGC(4)
B11: I1-GS10-E1 pegylated, His-tagged (designed binder)
chain: MGVSDVPRDLEVVAATPTSLLISWSARLKVARYYRITYGETGGNSPVQEFTVPKNVYTATISGLKPGVDYTITVYAVTRFRDYQPISINYRTEIDKGSGSGSGSGSGSGSGSGSGSVSDVPRDLEVVAATPTSLLISWVAGAEDYQYYRITYGETGGNSPVQEFTVPHDLVTATISGLKPGVDYTITVYAVTDMMHVEYTEHPISINYRTEIDKPCQHHHHHH
modifications: 40 kDa branched PEG on the Cys of the C-terminal Cys tail

Molecular target: T1, IGF-IR on human tumour cells (H292, MCF-7, RH41) (human, UniProt P08069 31-1367)
Experiment: cell-based or functional assay

| inhibition of RH41 cell proliferation, IC50 | Binder |
| --- | --- |
| 0.2 nM | B1 |

Molecular target: rat EGFR (rat, UniProt A0ABK0LZB0 35-1214)
Experiment: SPR Biacore

| Kd | Binder |
| --- | --- |
| 10.7 nM | B2 |
| 3.6 nM | B1 |
| 2.9 nM | B3 |

Molecular target: mouse EGFR (mouse, UniProt Q01279 25-647, limits assumed)
Experiment: SPR Biacore

| Kd | Binder |
| --- | --- |
| 13.9 nM | B2 |
| 3.4 nM | B1 |
| 2.7 nM | B3 |

Molecular target: monkey EGFR (monkey)
Experiment: SPR Biacore

| Kd | Binder |
| --- | --- |
| 7 nM | B2 |
| 5.1 nM | B1 |
| 4.4 nM | B3 |

Molecular target: T2, EGFR on the surface of human tumour cells (A431, H292) (human, UniProt P00533 25-1210)
Experiment: cell-based or functional assay

| IC50, EGF-induced EGFR phosphorylation, A431 cells, In Cell Western | IC50, EGF-induced ERK phosphorylation, A431 cells, In Cell Western | IC50, EGF-stimulated EGFR phosphorylation, H292 cells, ELISA | Binder |
| --- | --- | --- | --- |
| 22 nM | 23 nM | 8 nM | B2 |

Molecular target: T1, IGF-IR on human tumour cells (H292, …)
Experiment: cell-based or functional assay
Remark: another data set of the same source

| IC50, IGF1-stimulated IGFR phosphorylation, H292 cells, ELISA | Binder |
| --- | --- |
| 0.7 nM | B2 |
| 0.5 nM | B3 |

Molecular target: T3, IGF1R-Fc (extracellular domain of human IGF1R aa 1-932 fused to hinge and constant regions of human IgG1) (human, UniProt P08069 31-932)
T3 construct: range 1-932; made in house by transient transfection, purified on Protein A; also called IGF-IR-Fc; not shown: hinge and constant regions of human IgG1
Experiment: SPR Biacore, IGF1R-Fc

| Kd | koff | kon | Binder |
| --- | --- | --- | --- |
| 0.29 nM | 0.000245 s⁻¹ | 852000 M⁻¹ s⁻¹ | B4 |
| 0.26 nM | 0.000279 s⁻¹ | 1.07e+06 M⁻¹ s⁻¹ | B5 |
| 0.22 nM and 0.23 nM | 0.000288 s⁻¹ and 0.000276 s⁻¹ | 1.28e+06 M⁻¹ s⁻¹ and 1.22e+06 M⁻¹ s⁻¹ | B6 |
| 0.7 nM | 0.000234 s⁻¹ | 334000 M⁻¹ s⁻¹ | B7 |
| 0.28 nM | 0.000281 s⁻¹ | 986000 M⁻¹ s⁻¹ | B8 |
| 7.16 nM | 0.000589 s⁻¹ | 82200 M⁻¹ s⁻¹ | B9 |
| 0.25 nM | 0.000265 s⁻¹ | 1.07e+06 M⁻¹ s⁻¹ | B10 |

Molecular target: T4, Recombinant human EGFR-Fc (aa 1-645 of the extracellular domain of human EGFR fused to human Fc) (human, UniProt P00533 25-645)
T4 construct: range 1-645; bought from R&D Systems; also called EGFR645-Fc; EGFR-Fc (HER-1); not shown: human Fc
Experiment: SPR Biacore, EGFR645-Fc; against I1-GS10-E5 Pegylated

| ΔKd (fold) | Δka (fold) | Δkd (fold) | Binder |
| --- | --- | --- | --- |
| 0.7 fold | 1 fold | 0.6 fold | B4 |
| 1.6 fold | 0.6 fold | 2.4 fold | B5 |
| 0.3 fold | 0.8 fold | 0.4 fold | B7 |
| 0.2 fold | 0.4 fold | 0.4 fold | B8 |
| 0.2 fold | 0.7 fold | 0.2 fold | B9 |
| 2 fold | 1.1 fold | 1.6 fold | B10 |

Molecular target: T4, Recombinant human EGFR-Fc (aa 1-645 of …)
Experiment: not given

| Kd | Binder |
| --- | --- |
| 5.97 nM | B2 |

Molecular target: T3, IGF1R-Fc (extracellular domain of human …)
Experiment: SPR Biacore

| Kd | Binder |
| --- | --- |
| 0.29 nM | B4 |
| 0.26 nM | B5 |
| 0.23 nM | B6 |
| 0.7 nM | B7 |
| 0.28 nM | B8 |
| 7.16 nM | B9 |
| 0.25 nM | B10 |

Molecular target: T4, Recombinant human EGFR-Fc (aa 1-645 of …)
Experiment: SPR Biacore

| Kd | Binder |
| --- | --- |
| 4 nM | B4 |
| 1.7 nM | B5 |
| 8.7 nM | B7 |
| 17.9 nM | B8 |
| 17 nM | B9 |
| 1.4 nM | B10 |

Molecular target: T4, Recombinant human EGFR-Fc (aa 1-645 of …)
Experiment: SPR Biacore, EGFR645-Fc

| Kd | koff | kon | Binder |
| --- | --- | --- | --- |
| 4 nM | 0.000118 s⁻¹ | 29400 M⁻¹ s⁻¹ | B4 |
| 1.7 nM | 3.04e-05 s⁻¹ | 17800 M⁻¹ s⁻¹ | B5 |
| 8.7 nM | 0.000199 s⁻¹ | 22800 M⁻¹ s⁻¹ | B7 |
| 17.9 nM | 0.000193 s⁻¹ | 10800 M⁻¹ s⁻¹ | B8 |
| 17 nM | 0.000334 s⁻¹ | 19600 M⁻¹ s⁻¹ | B9 |
| 1.4 nM | 4.52e-05 s⁻¹ | 33400 M⁻¹ s⁻¹ | B10 |

Molecular target: T3, IGF1R-Fc (extracellular domain of human …)
Experiment: SPR Biacore, IGF1R-Fc; against I1-GS10-E5 pegylated

| ΔKd (fold) | Δka (fold) | Δkd (fold) | Binder |
| --- | --- | --- | --- |
| 0.9 fold | 0.8 fold | 1.1 fold | B4 |
| 1 fold | 1 fold | 0.9 fold | B5 |
| 1.1 fold | 1.2 fold | 0.9 fold | B6 |
| 0.4 fold | 0.3 fold | 1.1 fold | B7 |
| 0.9 fold | 0.9 fold | 0.9 fold | B8 |
| 0.04 fold | 0.1 fold | 0.4 fold | B9 |
| 1 fold | 1 fold | 1 fold | B10 |

Molecular target: T2, EGFR on the surface of human tumour …
Experiment: cell-based or functional assay
Remark: another data set of the same source

| IC50, EGF-stimulated EGFR phosphorylation, A431 cells, In Cell Western | IC50, EGF-stimulated EGFR phosphorylation, H292 cells, ELISA | IC50, EGF-stimulated ERK phosphorylation, A431 cells, In Cell Western | Binder |
| --- | --- | --- | --- |
| 302 nM | 127 nM | 300 nM | B11 |

Molecular target: T1, IGF-IR on human tumour cells (H292, …)
Experiment: cell-based or functional assay
Remark: another data set of the same source

| IC50, IGF1-stimulated IGFR phosphorylation, H292 cells, ELISA | Binder |
| --- | --- |
| 0.9 nM | B11 |

Molecular target: T2, EGFR on the surface of human tumour …
Experiment: not given

| IC50 | Binder |
| --- | --- |
| 37.8 nM | B2 |

Molecular target: T2, EGFR on the surface of human tumour …
Experiment: cell-based or functional assay
Remark: another data set of the same source

| pEGFR IC50 | pERK IC50 | Binder |
| --- | --- | --- |
| 19.8 nM | 8 nM | B4 |
| 68.4 nM | 30 nM | B5 |
| 30 nM | 11 nM | B6 |
| 21 nM | 10 nM | B7 |
| 22.6 nM | 29 nM | B8 |
| 22.7 nM | 15 nM | B9 |
| 28.7 nM | 19 nM | B10 |

Molecular target: T1, IGF-IR on human tumour cells (H292, …)
Experiment: cell-based or functional assay
Remark: another data set of the same source

| pIGFR IC50 | Binder |
| --- | --- |
| 2.2 nM | B1 |
| 1.4 nM | B4 |
| 2.2 nM | B5 |
| 1.2 nM | B6 |
| 1.9 nM | B7 |
| 2.1 nM | B8 |
| 6.2 nM | B9 |
| 1.2 nM | B10 |

Molecular target: T3, IGF1R-Fc (extracellular domain of human …)
Experiment: not given

| Kd | Binder |
| --- | --- |
| 0.43 nM | B2 |
